Results: patent US20110223183A1

Molecular target: Flt1/VEGFR1 (human) (UniProt P17948)
Experiment: cell-based or functional assay

Sequence of UniProt P17948 (P17948 27-1338): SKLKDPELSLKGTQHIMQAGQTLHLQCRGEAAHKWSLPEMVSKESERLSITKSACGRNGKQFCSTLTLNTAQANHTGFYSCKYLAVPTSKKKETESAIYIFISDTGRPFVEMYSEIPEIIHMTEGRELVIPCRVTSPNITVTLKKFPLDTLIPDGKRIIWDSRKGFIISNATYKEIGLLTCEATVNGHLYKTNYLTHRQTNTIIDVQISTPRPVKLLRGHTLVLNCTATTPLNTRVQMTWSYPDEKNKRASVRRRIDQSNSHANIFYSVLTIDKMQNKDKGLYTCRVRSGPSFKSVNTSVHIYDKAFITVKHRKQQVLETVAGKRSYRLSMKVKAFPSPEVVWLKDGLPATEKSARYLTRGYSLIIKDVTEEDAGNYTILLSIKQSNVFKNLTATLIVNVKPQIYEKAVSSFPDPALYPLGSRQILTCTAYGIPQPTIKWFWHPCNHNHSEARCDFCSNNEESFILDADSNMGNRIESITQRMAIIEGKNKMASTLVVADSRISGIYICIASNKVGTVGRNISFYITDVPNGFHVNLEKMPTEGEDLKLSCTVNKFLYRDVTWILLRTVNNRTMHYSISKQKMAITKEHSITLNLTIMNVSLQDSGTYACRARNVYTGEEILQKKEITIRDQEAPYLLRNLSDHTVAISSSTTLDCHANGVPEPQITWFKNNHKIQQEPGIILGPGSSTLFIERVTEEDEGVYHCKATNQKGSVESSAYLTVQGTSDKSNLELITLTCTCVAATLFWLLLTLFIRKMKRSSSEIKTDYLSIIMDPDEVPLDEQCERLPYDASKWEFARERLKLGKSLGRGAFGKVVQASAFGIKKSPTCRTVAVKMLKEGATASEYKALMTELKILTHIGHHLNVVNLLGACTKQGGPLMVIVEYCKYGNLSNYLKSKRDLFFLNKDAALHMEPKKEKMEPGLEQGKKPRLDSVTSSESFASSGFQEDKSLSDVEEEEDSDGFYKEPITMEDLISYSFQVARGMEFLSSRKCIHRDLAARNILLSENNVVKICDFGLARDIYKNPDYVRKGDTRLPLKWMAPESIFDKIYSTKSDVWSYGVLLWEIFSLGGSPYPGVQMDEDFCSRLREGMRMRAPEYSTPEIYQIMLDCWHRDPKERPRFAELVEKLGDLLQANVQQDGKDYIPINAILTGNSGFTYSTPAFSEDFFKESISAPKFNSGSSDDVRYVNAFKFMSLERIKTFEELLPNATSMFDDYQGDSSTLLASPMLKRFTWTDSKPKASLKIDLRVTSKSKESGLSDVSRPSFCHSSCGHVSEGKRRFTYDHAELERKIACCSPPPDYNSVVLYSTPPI

- HUVEC buds containing multiple filopodia: 250%
Substance: placental growth factor (ligand)
